B1: B-cell CLL/lymphoma 9 protein (Homo sapiens), O00512 (parent)
chain: MHSSNPKVRSSPSGNTQSSPKSKQEVMVRPPTVMSPSGNPQLDSKFSNQGKQGGSASQSQPSPCDSKSGGHTPKALPGPGGSMGLKNGAGNGAKGKGKRERSISADSFDQRDPGTPNDDSDIKECNSADHIKSQDSQHTPHSMTPSNATAPRSSTPSHGQTTATEPTPAQKTPAKVVYVFSTEMANKAAEAVLKGQVETIVSFHIQNISNNKTERSTAPLNTQISALRNDPKPLPQQPPAPANQDQNSSQNTRLQPTPPIPAPAPKPAAPPRPLDRESPGVENKLIPSVGSPASSTPLPPDGTGPNSTPNNRAVTPVSQGSNSSSADPKAPPPPPVSSGEPPTLGENPDGLSQEQLEHRERSLQTLRDIQRMLFPDEKEFTGAQSGGPQQNPGVLDGPQKKPEGPIQAMMAQSQSLGKGPGPRTDVGAPFGPQGHRDVPFSPDEMVPPSMNSQSGTIGPDHLDHMTPEQIAWLKLQQEFYEEKRRKQEQVVVQQCSLQDMMVHQHGPRGVVRGPPPPYQMTPSEGWAPGGTEPFSDGINMPHSLPPRGMAPHPNMPGSQMRLPGFAGMINSEMEGPNVPNPASRPGLSGVSWPDDVPKIPDGRNFPPGQGIFSGPGRGERFPNPQGLSEEMFQQQLAEKQLGLPPGMAMEGIRPSMEMNRMIPGSQRHMEPGNNPIFPRIPVEGPLSPSRGDFPKGIPPQMGPGRELEFGMVPSGMKGDVNLNVNMGSNSQMIPQKMREAGAGPEEMLKLRPGGSDMLPAQQKMVPLPFGEHPQQEYGMGPRPFLPMSQGPGSNSGLRNLREPIGPDQRTNSRLSHMPPLPLNPSSNPTSLNTAPPVQRGLGRKPLDISVAGSQVHSPGINPLKSPTMHQVQSPMLGSPSGNLKSPQTPSQLAGMLAGPAAAASIKSPPVLGSAAASPVHLKSPSLPAPSPGWTSSPKPPLQSPGIPPNHKAPLTMASPAMLGNVESGGPPPPTASQPASVNIPGSLPSSTPYTMPPEPTLSQNPLSIMMSRMSKFAMPSSTPLYHDAIKTVASSDDDSPPARSPNLPSMNNMPGMGINTQNPRISGPNPVVPMPTLSPMGMTQPLSHSNQMPSPNAVGPNIPPHGVPMGPGLMSHNPIMGHGSQEPPMVPQGRMGFPQGFPPVQSPPQQVPFPHNGPSGGQGSFPGGMGFPGEGPLGRPSNLPQSSADAALCKPGGPGGPDSFTVLGNSMPSVFTDPDLQEVIRPGATGIPEFDLSRIIPSEKPSQTLQYFPRGEVPGRKQPQGPGPGFSHMQGMMGEQAPRMGLALPGMGGPGPVGTPDIPLGTAPSMPGHNPMRPPAFLQQGMMGPHHRMMSPAQSTMPGQPTLMSNPAAAVGMIPGKDRGPAGLYTHPGPVGSPGMMMSMQGMMGPQQNIMIPPQMRPRGMAADVGMGGFSQGPGNPGNMMF

Variants of: B1
Conditions: with ctnb1_human CTNNB1, P35222
ctnb1_human CTNNB1, P35222, sequence (P35222 whole entry): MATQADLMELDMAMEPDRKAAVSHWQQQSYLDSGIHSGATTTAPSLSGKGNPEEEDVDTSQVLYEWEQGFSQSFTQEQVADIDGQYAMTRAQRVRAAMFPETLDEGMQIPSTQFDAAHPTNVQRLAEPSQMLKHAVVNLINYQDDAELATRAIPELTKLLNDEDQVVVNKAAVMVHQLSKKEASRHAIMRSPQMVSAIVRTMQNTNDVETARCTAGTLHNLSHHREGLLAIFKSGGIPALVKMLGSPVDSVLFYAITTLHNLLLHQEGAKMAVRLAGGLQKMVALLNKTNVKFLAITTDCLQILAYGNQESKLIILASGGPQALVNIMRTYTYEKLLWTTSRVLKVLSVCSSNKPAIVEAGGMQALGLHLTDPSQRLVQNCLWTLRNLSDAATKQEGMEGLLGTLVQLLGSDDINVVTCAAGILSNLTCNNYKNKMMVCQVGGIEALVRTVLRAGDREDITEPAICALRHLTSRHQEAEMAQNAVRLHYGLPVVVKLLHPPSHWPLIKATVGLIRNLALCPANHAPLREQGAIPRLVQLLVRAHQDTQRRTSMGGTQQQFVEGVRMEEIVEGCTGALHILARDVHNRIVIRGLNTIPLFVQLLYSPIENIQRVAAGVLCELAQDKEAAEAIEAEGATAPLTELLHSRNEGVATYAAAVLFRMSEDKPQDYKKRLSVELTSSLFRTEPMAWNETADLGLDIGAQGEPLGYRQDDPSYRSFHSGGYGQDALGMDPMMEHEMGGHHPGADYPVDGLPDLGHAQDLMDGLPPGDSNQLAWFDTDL

| Variant | effect of a mutation on the interaction |
| --- | --- |
| L366A | decreasing interaction |
| I369A | decreasing interaction |
| H358A | decreasing interaction |
| R359A | decreasing interaction |

— IntAct's records for PubMed 17052462
